Test results taken from paper PMC9628938, “DED Interaction of FADD and Caspase-8 in the Induction of Apoptotic Cell Death” (Journal of Microbiology and Biotechnology, 2022).

Assays:
Assay in all cases: SPR; Biacore T100; FADD DED amine-coupled to CM5 chip; caspase-8 DEDs 250 to 5,000 nM as analyte in HBS-EP+ (10 mM HEPES pH 7.4, 150 mM NaCl, 3 mM EDTA, 0.05% P20), 25°C; apparent KD
Details in all cases: both partners purified
[1] = target: T1, caspase-8 DEDs (residues 1-188) R5E/I128A, His-tagged (human, UniProt Q14790 1-188, R5E | I128A)
T1 construct: human caspase-8, tandem death-effector domains, residues 1-188; also called Caspase-8 DEDs (R5E/I128A); source: E. coli BL21(DE3), purified (Ni-NTA, gel filtration)
T1 sequence (Q14790 1-188 R5E/I128A): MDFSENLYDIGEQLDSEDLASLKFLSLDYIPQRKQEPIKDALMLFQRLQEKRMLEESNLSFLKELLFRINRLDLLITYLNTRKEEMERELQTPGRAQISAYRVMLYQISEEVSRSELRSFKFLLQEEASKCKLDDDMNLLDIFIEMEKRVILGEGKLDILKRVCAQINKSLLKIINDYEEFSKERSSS

[2] = target: T2, caspase-8 DEDs (residues 1-188), His-tagged, wild type (human, UniProt Q14790 1-188)
T2 construct: human caspase-8, tandem death-effector domains DED1 and DED2, residues 1-188; Cloned in pET-28a; also called His-caspase-8 DEDs (1-188); wild-type caspase-8 DEDs; source: E. coli BL21(DE3), purified (Ni-NTA, gel filtration); also co-expressed with FADD DED in E. coli and co-purified
T2 sequence (Q14790 1-188): as the sequence (Q14790 1-188 R5E/I128A) above, with E5R, A128I counted along it

[3] = target: T3, caspase-8 DEDs (residues 1-188) I128A, His-tagged (human, UniProt Q14790 1-188, I128A)
T3 construct: human caspase-8, tandem death-effector domains, residues 1-188; also called Caspase-8 DEDs (I128A); source: E. coli BL21(DE3), purified (Ni-NTA, gel filtration)
T3 sequence (Q14790 1-188 I128A): as the sequence (Q14790 1-188 R5E/I128A) above, with E5R counted along it

B1: FADD DED (residues 1-83), His-tagged (domain or fragment, human, UniProt Q13158 1-83, looked up)
chain: MDPFLVLLHSVSSSLSSSELTELKFLCLGRVGKRKLERVQSGLDLFSMLLEQNDLEPGHTELLRELLASLRRHDLLRRVDDFE
notes: human FADD (MORT1), death-effector domain construct, residues 1-83; Cloned in pET-28a; also called wild-type FADD DED; Fas-associated death domain; source: E. coli BL21(DE3), purified (Ni-NTA, gel filtration); also co-expressed with caspase-8 DEDs in E. coli and co-purified
Kd [1]: 236 nM | Kd [2]: 38 nM | Kd [3]: 61 nM
